IntAct's records for PubMed 19369211

B1: Partner and localizer of BRCA2 (Homo sapiens), Q86YC2 (parent)
chain: MDEPPGKPLSCEEKEKLKEKLAFLKREYSKTLARLQRAQRAEKIKHSIKKTVEEQDCLSQQDLSPQLKHSEPKNKICVYDKLHIKTHLDEETGEKTSITLDVGPESFNPGDGPGGLPIQRTDDTQEHFPHRVSDPSGEQKQKLPSRRKKQQKRTFISQERDCVFGTDSLRLSGKRLKEQEEISSKNPARSPVTEIRTHLLSLKSELPDSPEPVTEINEDSVLIPPTAQPEKGVDTFLRRPNFTRATTVPLQTLSDSGSSQHLEHIPPKGSSELTTHDLKNIRFTSPVSLEAQGKKMTVSTDNLLVNKAISKSGQLPTSSNLEANISCSLNELTYNNLPANENQNLKEQNQTEKSLKSPSDTLDGRNENLQESEILSQPKSLSLEATSPLSAEKHSCTVPEGLLFPAEYYVRTTRSMSNCQRKVAVEAVIQSHLDVKKKGFKNKNKDASKNLNLSNEETDQSEIRMSGTCTGQPSSRTSQKLLSLTKVSSPAGPTEDNDLSRKAVAQAPGRRYTGKRKSACTPASDHCEPLLPTSSLSIVNRSKEEVTSHKYQHEKLFIQVKGKKSRHQKEDSLSWSNSAYLSLDDDAFTAPFHRDGMLSLKQLLSFLSITDFQLPDEDFGPLKLEKVKSCSEKPVEPFESKMFGERHLKEGSCIFPEELSPKRMDTEMEDLEEDLIVLPGKSHPKRPNSQSQHTKTGLSSSILLYTPLNTVAPDDNDRPTTDMCSPAFPILGTTPAFGPQGSYEKASTEVAGRTCCTPQLAHLKDSVCLASDTKQFDSSGSPAKPHTTLQVSGRQGQPTCDCDSVPPGTPPPIESFTFKENQLCRNTCQELHKHSVEQTETAELPASDSINPGNLQLVSELKNPSGSCSVDVSAMFWERAGCKEPCIITACEDVVSLWKALDAWQWEKLYTWHFAEVPVLQIVPVPDVYNLVCVALGNLEIREIRALFCSSDDESEKQVLLKSGNIKAVLGLTKRRLVSSSGTLSDQQVEVMTFAEDGGGKENQFLMPPEETILTFAEVQGMQEALLGTTIMNNIVIWNLKTGQLLKKMHIDDSYQASVCHKAYSEMGLLFIVLSHPCAKESESLRSPVFQLIVINPKTTLSVGVMLYCLPPGQAGRFLEGDVKDHCAAAILTSGTIAIWDLLLGQCTALLPPVSDQHWSFVKWSGTDSHLLAGQKDGNIFVYHYS

Variants of: B1
Conditions: with brca1_human BRCA1, P38398
brca1_human BRCA1, P38398, sequence (P38398 whole entry, looked up): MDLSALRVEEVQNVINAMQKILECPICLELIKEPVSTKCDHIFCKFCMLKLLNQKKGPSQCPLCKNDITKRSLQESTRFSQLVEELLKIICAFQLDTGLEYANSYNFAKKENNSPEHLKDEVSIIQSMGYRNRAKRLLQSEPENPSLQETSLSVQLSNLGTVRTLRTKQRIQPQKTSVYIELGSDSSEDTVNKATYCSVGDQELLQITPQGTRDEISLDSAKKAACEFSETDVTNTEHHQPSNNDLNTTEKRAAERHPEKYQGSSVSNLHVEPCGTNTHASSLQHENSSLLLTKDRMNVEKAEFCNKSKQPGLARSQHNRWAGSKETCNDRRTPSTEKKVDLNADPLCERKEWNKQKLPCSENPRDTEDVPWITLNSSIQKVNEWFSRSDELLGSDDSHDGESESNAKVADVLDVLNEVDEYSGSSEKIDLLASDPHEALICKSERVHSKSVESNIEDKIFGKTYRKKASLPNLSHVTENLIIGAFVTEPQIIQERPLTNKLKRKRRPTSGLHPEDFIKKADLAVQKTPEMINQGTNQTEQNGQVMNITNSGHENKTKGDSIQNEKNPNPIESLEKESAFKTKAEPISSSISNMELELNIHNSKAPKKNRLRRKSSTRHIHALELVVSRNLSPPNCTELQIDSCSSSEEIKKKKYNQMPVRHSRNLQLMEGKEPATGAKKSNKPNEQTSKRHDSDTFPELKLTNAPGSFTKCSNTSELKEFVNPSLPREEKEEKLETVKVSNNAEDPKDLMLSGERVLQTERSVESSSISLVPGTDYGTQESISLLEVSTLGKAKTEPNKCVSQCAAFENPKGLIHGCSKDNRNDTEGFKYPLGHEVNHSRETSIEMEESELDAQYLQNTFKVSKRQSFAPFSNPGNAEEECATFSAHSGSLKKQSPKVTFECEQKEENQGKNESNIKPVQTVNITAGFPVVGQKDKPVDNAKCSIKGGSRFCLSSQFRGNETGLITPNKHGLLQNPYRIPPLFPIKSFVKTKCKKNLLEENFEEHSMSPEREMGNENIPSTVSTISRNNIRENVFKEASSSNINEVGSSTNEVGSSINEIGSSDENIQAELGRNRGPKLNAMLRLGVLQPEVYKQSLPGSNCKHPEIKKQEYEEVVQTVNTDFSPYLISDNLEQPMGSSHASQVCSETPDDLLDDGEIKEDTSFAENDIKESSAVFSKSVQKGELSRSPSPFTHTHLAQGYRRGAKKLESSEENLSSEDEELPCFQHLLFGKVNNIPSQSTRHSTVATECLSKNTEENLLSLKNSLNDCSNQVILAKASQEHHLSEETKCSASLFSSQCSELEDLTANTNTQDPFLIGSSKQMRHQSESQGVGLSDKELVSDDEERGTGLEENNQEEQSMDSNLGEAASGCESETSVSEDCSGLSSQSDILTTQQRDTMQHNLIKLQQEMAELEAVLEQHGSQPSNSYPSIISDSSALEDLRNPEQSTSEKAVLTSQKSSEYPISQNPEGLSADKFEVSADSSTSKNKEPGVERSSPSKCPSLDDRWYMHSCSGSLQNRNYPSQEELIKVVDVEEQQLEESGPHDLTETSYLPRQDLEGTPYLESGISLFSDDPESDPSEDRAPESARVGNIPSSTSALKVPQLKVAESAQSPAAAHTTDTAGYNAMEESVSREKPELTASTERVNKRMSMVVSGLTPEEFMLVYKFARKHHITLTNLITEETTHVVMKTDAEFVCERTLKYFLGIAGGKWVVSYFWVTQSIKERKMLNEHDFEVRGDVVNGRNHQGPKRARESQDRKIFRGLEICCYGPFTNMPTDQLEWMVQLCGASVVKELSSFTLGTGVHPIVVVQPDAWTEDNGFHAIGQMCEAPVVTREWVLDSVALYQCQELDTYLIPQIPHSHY

| Variant | effect of a mutation on the interaction |
| --- | --- |
| Y28A | disrupting interaction |
| L21A | disrupting interaction |
